Data from paper PMC11609053.

How the values were obtained:
[1] = target: T1, SCAB_Lrp2 (Streptomyces scabies 87.22) (UniProt C9Z7M0); experiment: EMSA; conditions: 20 uL: 50 ng biotin-labelled probe, 0-400 nM protein, 2 uL binding buffer (Liu et al. 2023; composition, pH and temperature not given), chemiluminescent …
T1 sequence: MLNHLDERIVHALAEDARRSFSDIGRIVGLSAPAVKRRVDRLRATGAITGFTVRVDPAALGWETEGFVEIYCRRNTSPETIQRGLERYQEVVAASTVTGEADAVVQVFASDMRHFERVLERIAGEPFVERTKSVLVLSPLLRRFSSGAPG

[2] = target: T2, SCAB_Lrp (Streptomyces scabies 87.22?) (UniProt C9ZB67); experiment: EMSA; conditions: 20 uL: 50 ng biotin-labelled probe, 0-400 nM protein, 2 uL binding buffer (Liu et al. 2023; composition, pH and temperature not given), chemiluminescent …
T2 sequence: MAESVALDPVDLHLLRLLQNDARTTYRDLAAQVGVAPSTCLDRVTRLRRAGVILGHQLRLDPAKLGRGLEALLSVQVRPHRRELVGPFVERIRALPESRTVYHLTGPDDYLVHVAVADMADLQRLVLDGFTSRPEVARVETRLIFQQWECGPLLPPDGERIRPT

Sequence	binding [1]	binding [2]
AAGGCAGTACCTTGCGCTCGGCGCGTCGGCCGGAAATCGAGTGAAGCAAGATGCTTCCCCCTTCTCGGCTCCGAGCGCGACAAACAGTTCAGAACAGGCCACGGCGAGATCCTCCGCAAGGAACGAACCCAGTCGTTCACCCGCTTAGTTTGATTGAAATTTCAACTACCAGGTCAATCG (double strand) [PtxtR]	binds	–
GTCGTCTTCGGCGTCTGGATGGCCGCCGGGCTCGTGTTCTACTTCAGTTACGGCCACCGGCGCTCGCGTCTGGCTGCGGCCCCGGCCCCCGCCGACCCCACGTCCCCGCCGGCTCCCCCGTCCACGTCCCCGTCGACTCCAGAGAAGTGATCCACCCGCAGTGCTGAACCATCTCGACGA (double strand) [P75421]	binds	binds
